Laboratory results taken from US20230272051A1 (CENTIVAX, published 2023).
Numbering of substitutions follows the chain as printed.

B1: COVID19_P01_H05 (scFv, V domains shown)
VH: QVQLVQSGAEVKKPGSSVKVSCKASGGTFSNFALTWVRQAPGQGLEWMGLINPSGGSTSYAQRFQGRVTITADESTSTAYMELSSLRSEDTAVYYCARDSVMGGMDVWGQGTLVTVSS
VL: SSYVLTQPPSVSVAPGKTARITCGGNNIGSKSVHWYQQKPGQAPVLVIYYDSDRPSGIPERFSGSNSGNTATLTISRVEAGDEADYYCQVWASSSDYVFGGGTKLTVLA
B2: COVID19_P01_H07 (scFv, V domains shown)
VH: QVQLVQSGAEVKKPGSSVKVSCKASGYSFNNYDLHWVRQAPGQGLEWMGGIIPIFDTANYAQKFQGRVTITADESTSTAYMELSSLRSEDTAVYYCALETVMGGMVKWGQGTLVTVSS
VL: B1 VL with V78I, A92D, S95G
B3: COVID19_P13_H07 (scFv, V domains shown)
VH: QVQLVQSGAEVKKPGSSVKVSCKASGYTFINYDINWVRQAPGQGLEWMGGITPIFGTAKYAQKFQGRVTITADESTSTAYMELSSLRSEDTAVYYCARDTVMGGMDVWGQGTLVTVSS
VL: B1 VL with A92D
B4: COVID19_P14_C01 (scFv, V domains shown)
VH: B3 VH with I30S, N31D, Y32F, D33Y, I34L, N35H, K59N, R98M, D99E
VL: B1 VL with A92D
B5: COVID19_P14_D07 (scFv, V domains shown)
VH: QVQLVQSGAEVKKPGSSVKVSCKASGYTFSSFYIHWVRQAPGQGLEWMGGIIPIFGEAEYAHKFQGRVTITADESTSTAYMELSSLRSEDTAVYYCAMETVMGGMDVWGQGTLVTVSS
VL: B1 VL with A92D
B6: COVID19_P14_E01 (scFv, V domains shown)
VH: B2 VH with S28T, N30T, N31S, D33Y, L34M, I52T, D56G, L98V, V106Q, K107M
VL: B1 VL with A92D
B7: COVID19_P14_E07 (scFv, V domains shown)
VH: B3 VH with K59N
VL: B1 VL with A92D, S94H
B8: COVID19_P14_F08 (scFv, V domains shown)
VH: B5 VH with S30T, S31A, F55S, E57T, E59N, H62Q, V68A, M98R, T100V
VL: B1 VL with A92D, S94T
B9: COVID19_P14_G01 (scFv, V domains shown)
VH: B3 VH with T28N, D33Y, I34L, N35H, T57I, K59N, D99E
VL: B1 VL with N27K, A92D, S94G
B10: COVID19_P01_H06 (scFv, V domains shown)
VH: QVQLVQSGAEVKKPGSSVKVSCKASGYTFTSYYMHWVRQAPGQGLEWMGLIDPSGGTTSYAQKFQGRVTITADESTSTAYMELSSLRSEDTAVYYCVWDTVMGGMDVWGQGTLVTVSS
VL: SYVLTQPPSVSVAPGKTAARITCGGNNIGSKSVHWYQQKPGQAPVLVIYKDGERPSGIPERFSGSNSRNTATLTISRVEAGDEADYYCQVWDSSSLYVFGGGTKLTVLA
B11: COVID19_P01_H10 (scFv, V domains shown)
VH: QVQLVQSGAEVKKPGSSVKVSCKASGGTFGNYPITWVRQAPGQGLEWMGIIYPGDSDARYRPSFQGRVTITADESTSTAYMELSSLRSEDTAVYYCARDFSMGGMDVWGQGTLVTVSS
VL: B1 VL with A92D, S93D
notes: also called COVID19_PO1_H10
B12: COVID19_P01_B08 (scFv, V domains shown)
VH: B1 VH with L34I, L50V, S54G, S59T, R63T, S100T
VL: B1 VL with A92D
B13: COVID19_P13_B05 (scFv, V domains shown)
VH: QVQLVQSGAEVKKPGSSVKVSCKASGYTFTSYDINWVRQAPGQGLEWMGWINPNSGGTNYAQKFQGRVTITADESTSTAYMELSSLRSEDTAVYYCARDTFFGGMDVWGQGTLVTVSS
VL: B1 VL with A92D, D96Y
B14: COVID19_P14_B07 (scFv, V domains shown)
VH: B13 VH with D33G, N35S, R98V, D99E, F101V, F102M, M105F, D106T
VL: B1 VL with A92D
B15: COVID19_P01_E11 (scFv, V domains shown)
VH: QVQLVQSGAEVKKPGSSVKVSCKASGGTFSNYTITWVRQAPGQGLEWLGWISAYNGNTDYAQKLQGRVTITADESTSTAYMELSSLRSEDTAVYYCARDALMGGMDVWGQGTLVTVSS
VL: B1 VL with A92D, S94R
B16: COVID19_P02_A04 (scFv, V domains shown)
VH: B10 VH with T28A, L50V, G55E, T57S, Y60N, Q62R, W98S
VL: B1 VL with I48V, Y50D, A92D, D96L
B17: COVID19_P02_A11 (scFv, V domains shown)
VH: QVQLVQSGAEVKKPGSSVKVSCKASGSTFSMFAINWVRQAPGQGLEWVGVINPRGSSTTYAQKFQGRVTITADESTSTAYMELSSLRSEDTAVYYCARDTVMGGMDVWGQGTLVTVSS
VL: B1 VL with A92D, S93R
B18: COVID19_P14_B05 (scFv, V domains shown)
VH: B1 VH with N31S, F32Y, A33T, L34I, T35S, L50I, R63K, S100T, D106G
VL: B1 VL with A92D, D96F
B19: COVID19_P14_F05 (scFv, V domains shown)
VH: B17 VH with S27N, R54I, S57T
VL: B1 VL with A92V
B20: COVID19_P14_F06 (scFv, V domains shown)
VH: B1 VH with N31S, L34I, T35I, G49A, G55S, S57T, R63K, D99E, S100T
VL: B1 VL with A92D, D96H
B21: COVID19_P14_F07 (scFv, V domains shown)
VH: B13 VH with Y27G, T30S, D33A, N35S, V37M, S85N, F101Y, F102W
VL: B1 VL with A92D, D96F
B22: COVID19_P14_H10 (scFv, V domains shown)
VH: QVQLVQSGAEVKKPGSSVKVSCKASGGSFSRFPISWVRQAPGQGLEWMGGIIPIFGTANYAQRFQGRVTITADESTSTAYMELSSLRSEDTAVYYCALETVMGGLQVWGQGTLVTVSS
VL: B1 VL with A92D

Experiments:
[1] = target: T1, SARS-CoV-2 Receptor Binding Domain (RBD) protein (SARS-CoV-2, UniProt P0DTC2 319-541); test: SPR (Carterra LSA)
T1 construct: also called Sars-Cov-2 (COV2)

[2] = target: SARS-CoV-2 spike protein (on pseudovirus) (SARS-CoV-2, UniProt P0DTC2 14-1273); test: cell-based or functional assay
[3] = target: T1, SARS-CoV-2 Receptor Binding Domain …; test: SPR (Carterra LSA); scFv captured by anti-V5, RBD as analyte

Row | Binder | Kd [1] [nM] | IC50 [µg/mL] pseudotyped lenti neutralization [2] [µg/mL] | Kd [3] [nM] | koff [3] [s⁻¹] | kon [3] [M⁻¹ s⁻¹]
1 | B1 | < 50 | 35 | 1.11 | 0.000468 | 423000
2 | B2 | – | 6.5 | 0.81 | 0.000401 | 496000
3 | B3 | < 50 | 15 | 1.92 | 0.00031 | 160000
4 | B4 | < 50 | – | 12.1 | 0.00191 | 158000
5 | B5 | < 50 | – | 6.08 | 0.00232 | 381000
6 | B6 | < 50 | – | 10.7 | 0.000819 | 76800
7 | B7 | < 50 | – | 5.67 | 0.000778 | 137000
8 | B8 | < 50 | – | 25 | 0.00283 | 113000
9 | B9 | < 50 | – | 8.45 | 0.000842 | 99700
10 | B10 | – | 2.1 | 1.31 | 0.000621 | 474000
11 | B11 | < 50 | – | 39.3 | 0.0148 | 377000
12 | B12 | < 50 | – | 33.8 | 0.0149 | 442000
13 | B13 | < 50 | – | 21.9 | 0.0037 | 170000
14 | B14 | < 50 | – | 34.2 | 0.0131 | 383000
15 | B15 | < 50 | – | 5.87 | 0.000586 | 99900
16 | B16 | < 50 | – | 41.4 | 0.0187 | 451000
17 | B17 | < 50 | – | 45.1 | 0.0147 | 326000
18 | B18 | < 50 | – | 48 | 0.0141 | 294000
19 | B19 | < 50 | – | 21.7 | 0.00152 | 69900
20 | B20 | < 50 | – | 48.3 | 0.0024 | 49700
21 | B21 | < 50 | – | 17 | 0.00245 | 144000
22 | B22 | < 50 | – | 28.3 | 0.01 | 355000
